The results in this text go back to US20070276130A1 (CHILDREN S MEDICAL CENTER, published 2007).

Ends that are not written are not given here.

Data set [1] addresses VP5CT of rhesus rotavirus (RRV) VP4 (rhesus rotavirus (RRV)) (UniProt P12473). Briefly: X-ray crystal structure.
In data set [2] the target is T1, DS-1 VP8* core with residues 60-64 mutated to SGSGG (human rotavirus strain DS-1, UniProt P11196 65-223 (Rotavirus A entry)).
T1 construct: That conversion is mine; also called modified DS-1 VP8* core; unlabeled VP8* core
T1 chain: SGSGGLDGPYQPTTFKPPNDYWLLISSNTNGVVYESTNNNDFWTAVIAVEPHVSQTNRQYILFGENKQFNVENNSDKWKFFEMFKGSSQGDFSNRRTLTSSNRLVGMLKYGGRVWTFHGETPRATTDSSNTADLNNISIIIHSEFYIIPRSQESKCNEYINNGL
Briefly: two-dimensional 15N-1H HSQC NMR; no change in the chemical shifts of the 15N valines of the peptide.
From the text: We used nuclear magnetic resonance (NMR) spectroscopy to assay the binding in solution of a peptide based on the leader to the potential peptide binding cleft. […] To avoid competition between the peptide and residues of the authentic N-terminal leader of the unlabeled VP8* core, residues 60-64 of the core were mutated to SGSGG using PCR.

Data set [3] concerns the molecule itself. Briefly: X-ray crystal structure (crystal packing).
The data set “X-ray crystal structure” deals with the molecule itself. Kind of data set: X-ray crystal structure.

On to “VP5CT of rhesus rotavirus (RRV) VP4 (from UniProt P12473 248-525)”, for which, in data set [1], the share of the surface area of each subunit buried by trimer contacts was 25.8% and the surface area of each subunit buried by trimer contacts worked out at 3960 Å2.

B1: peptide TVEPVS (DS-1 VP4 residues 60-64 plus a C-terminal serine) (peptide)
peptide: TVEPVS
modifications: also: 15N-labelled on valine, position not given here
notes: also called leader peptide; assayed peptide
With B1, the binding result in data set [2] is reported as “no binding”.

B2: DS-1 VP8* core (residues 60-223 of DS-1 VP4) (other)
chain: TVEPVLDGPYQPTTFKPPNDYWLLISSNTNGVVYESTNNNDFWTAVIAVEPHVSQTNRQYILFGENKQFNVENNSDKWKFFEMFKGSSQGDFSNRRTLTSSNRLVGMLKYGGRVWTFHGETPRATTDSSNTADLNNISIIIHSEFYIIPRSQESKCNEYINNGL
notes: There are eight molecules in the asymmetric unit of the P1 crystal
For B2, the binding result in data set [3] is given as “binds”.

B3: RRV VP5* antigen domain (residues 247-479 of rhesus rotavirus VP4) (other)
chain: RAQANEDIVVSKTSLWKEMQYNRDITIRFKFASSIVKSGGLGYKWSEISFKPANYQYTYTRDGEEVTAHTTCSVNGMNDFNFNGGSLPTDFVISRYEVIKENSYVYVDYWDDSQAFRNMVYVRSLAANLNSVICTGGDYSFALPVGQWPVMTGGAVSLHSAGVTLSTQFTDFVSLNSLRFRFRLTVEEPSFSITRTRVSRLYGLPAANPNNGKEYYEVAGRFSLISLVPSNDD
notes: Expressed in Sf-9 cells from a baculovirus with an N-terminal histidine tag and a thrombin site; It crystallised both as a trimer and as a dimer, so copies is left open; also called VP5Ag; VP5* antigen (R247-D479)
With B3, the binding result in “X-ray crystal structure” is “binds”.
